Results published in publication PMC7610691 (Nature structural & molecular biology, 2020).

T1: Smc4 (S. cerevisiae condensin subunit) (S. cerevisiae, UniProt Q12267 1-1418)
T1 sequence: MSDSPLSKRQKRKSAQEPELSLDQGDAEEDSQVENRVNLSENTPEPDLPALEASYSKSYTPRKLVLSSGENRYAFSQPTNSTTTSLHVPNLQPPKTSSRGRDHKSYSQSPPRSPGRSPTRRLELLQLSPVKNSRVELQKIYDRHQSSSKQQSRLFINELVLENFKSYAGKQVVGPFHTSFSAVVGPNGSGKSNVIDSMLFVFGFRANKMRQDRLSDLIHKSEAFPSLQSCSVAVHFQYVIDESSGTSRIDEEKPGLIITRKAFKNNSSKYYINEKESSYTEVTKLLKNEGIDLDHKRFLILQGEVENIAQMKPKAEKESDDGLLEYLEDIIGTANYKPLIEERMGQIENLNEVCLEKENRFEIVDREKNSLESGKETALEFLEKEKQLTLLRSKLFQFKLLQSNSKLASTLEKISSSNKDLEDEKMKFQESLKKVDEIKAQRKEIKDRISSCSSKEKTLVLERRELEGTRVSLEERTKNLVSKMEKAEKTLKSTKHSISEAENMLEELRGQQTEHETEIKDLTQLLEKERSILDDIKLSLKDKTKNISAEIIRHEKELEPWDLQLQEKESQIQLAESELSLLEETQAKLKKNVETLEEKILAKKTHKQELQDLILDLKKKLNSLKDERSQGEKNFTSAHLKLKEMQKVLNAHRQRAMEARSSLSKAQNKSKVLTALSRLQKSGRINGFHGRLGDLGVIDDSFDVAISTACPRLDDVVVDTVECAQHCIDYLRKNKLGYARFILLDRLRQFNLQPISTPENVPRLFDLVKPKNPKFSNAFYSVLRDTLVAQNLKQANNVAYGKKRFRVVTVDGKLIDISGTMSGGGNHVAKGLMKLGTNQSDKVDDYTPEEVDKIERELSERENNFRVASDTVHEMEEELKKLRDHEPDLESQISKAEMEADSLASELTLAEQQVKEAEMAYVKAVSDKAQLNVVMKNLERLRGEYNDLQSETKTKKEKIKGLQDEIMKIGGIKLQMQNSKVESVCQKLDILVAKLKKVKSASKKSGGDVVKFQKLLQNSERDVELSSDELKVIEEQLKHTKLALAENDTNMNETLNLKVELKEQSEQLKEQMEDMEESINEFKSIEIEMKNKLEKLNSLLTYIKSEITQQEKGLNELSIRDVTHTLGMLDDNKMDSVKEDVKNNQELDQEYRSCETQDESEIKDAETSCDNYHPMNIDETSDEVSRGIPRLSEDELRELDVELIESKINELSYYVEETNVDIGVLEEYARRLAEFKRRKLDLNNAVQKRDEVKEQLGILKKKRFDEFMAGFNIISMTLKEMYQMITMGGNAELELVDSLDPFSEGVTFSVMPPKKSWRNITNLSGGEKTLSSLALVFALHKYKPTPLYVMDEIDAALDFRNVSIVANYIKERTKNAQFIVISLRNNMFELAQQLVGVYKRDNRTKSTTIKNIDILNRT

B1: Smc2 (S. cerevisiae condensin subunit) (natural protein)
chain: MKVEELIIDGFKSYATRTVITDWDPQFNAITGLNGSGKSNILDAICFVLGIASMSTVRASSLQDLIYKRGQAGVTKASVTIVFDNTDKSNSPIGFTNSPQISVTRQVVLGGTSKYLINGHRAPQQSVLQLFQSVQLNINNPNFLIMQGKITKVLNMKPSEILSLIEEAAGTKMFEDRREKAERTMSKKETKLQENRTLLTEEIEPKLEKLRNEKRMFLEFQSTQTDLEKTERIVVSYEYYNIKHKHTSIRETLENGETRMKMLNEFVKKTSEEIDSLNEDVEEIKLQKEKELHKEGTISKLENKENGLLNEISRLKTSLSIKVENLNDTTEKSKALESEIASSSAKLIEKKSAYANTEKDYKMVQEQLSKQRDLYKRKEELVSTLTTGISSTGAADGGYNAQLAKAKTELNEVSLAIKKSSMKMELLKKELLTIEPKLKEATKDNELNVKHVKQCQETCDKLRARLVEYGFDPSRIKDLKQREDKLKSHYYQTCKNSEYLKRRVTNLEFNYTKPYPNFEASFVHGVVGQLFQIDNDNIRYATALQTCAGGRLFNVVVQDSQTATQLLERGRLRKRVTIIPLDKIYTRPISSQVLDLAKKIAPGKVELAINLIRFDESITKAMEFIFGNSLICEDPETAKKITFHPKIRARSITLQGDVYDPEGTLSGGSRNTSESLLVDIQKYNQIQKQIETIQADLNHVTEELQTQYATSQKTKTIQSDLNLSLHKLDLAKRNLDANPSSQIIARNEEILRDIGECENEIKTKQMSLKKCQEEVSTIEKDMKEYDSDKGSKLNELKKELKLLAKELEEQESESERKYDLFQNLELETEQLSSELDSNKTLLHNHLKSIESLKLENSDLEGKIRGVEDDLVTVQTELNEEKKRLMDIDDELNELETLIKKKQDEKKSSELELQKLVHDLNKYKSNTNNMEKIIEDLRQKHEFLEDFDLVRNIVKQNEGIDLDTYRERSKQLNEKFQELRKKVNPNIMNMIENVEKKEAALKTMIKTIEKDKMKIQETISKLNEYKRETLVKTWEKVTLDFGNIFADLLPNSFAKLVPCEGKDVTQGLEVKVKLGNIWKESLIELSGGQRSLIALSLIMALLQFRPAPMYILDEVDAALDLSHTQNIGHLIKTRFKGSQFIVVSLKEGMFANANRVFRTRFQDGTSVVSIM
B2: Ycs4 (S. cerevisiae condensin HEAT-repeat subunit) (natural protein)
chain: MSGFSLSEYLTKFQTTDRESYPRLQDPSRELNVIIDQLAVSPEQIDASPDSLEALIDLCHDFPHLTPKLQTQLSYLISSSLSNLSKDIKANLSSNVNFTEIGGLIPQWKRHLEEYGYLIQVLLTFLQDELHKVSSQSTNLNRSAKNSKNDSANVELFKRDCNQMENLLESITKLLEINLSKIFQTTPEKDLFIGLFTRPLFVLLEIEPVTKVSSLKMFIQRILAMCVKNHGQSSSIQSSLMTNLTYFLHLSVFNAELLKLLNDEYNYPQLTEDILKEISTRVFNAKDTTGPKAISNFLIKLSELSPGIMLRQMNLVITLLNNSSITLRCSVVEACGNIVAELAQDPQTMEHYKQQIAVLIELLEERFQDSNPYVRTKAIQGCSKICDLSSKFNKSKAKFTSLAVRSLQDRSSLVRRNSVKLLSKLLLKHPFKAIHGSQLRLSEWEEYLKGSESQLNSTLKKVESQETLNDTIERSLIEEEVEQDEGQCRTELEGSFNKSAELSRIENEVENINATNTSVLMKLKLMIVYYKDAISFIKEIHKSIELISNLLFSKNRNEVLESMDFLVLADAFDIELSEFGIKKMLHLVWMKGTNDEGTSISVHLIECYKQLFLTAPDSCNMQEKAAHIAKNLINLSIGASIADLASLEQLLGMMYEQKLIDQHVINILWAIYNSASKASMQKEQNVNNRDSEKGFSKEQIHGSIIILGMLSLADNEIALKGLESLLNIGLGAVGLKDLTLCRYSCLALERMVPKRSTIITKAINQELEDVAVKKLYAIIINYTKDNEYYPMCEQALSALFTISSKPDILATDLIREKTMMTFGKPEEEDSILSLEQSSRVVSLSQLLFIVGQVAIKTLVYLEKCEAEFKKRKIEAETRNGKVKNQGADVTNTTQDNGGDKELEMIGGTNEDDFTDAIQFVKENELLFGEKSILGKFCPIVEEIVSNSSRFSDPMLQRTATLCLEKLMCLSSKYCEKSLPLLITVMEKSPDPTIRSNAVLGLGDMAVCFNNLVDENTDYLYRRLHDENLMVQRTCLMTVTFLILAGQVKVKGQLGEMAKCLDNPDQGISDMCRLFFTELASKDNAIYNGFIDIFSNLSSDDLLGKESFKKIIKFLLTFIDKERHQKQLNEKLVGRLRKCETQKQWDDIAFVLNNLPYKNEDVTALLEQGFKVVSAKE

Assays:
[1] = biological target: B2; experiment: cross-linking
[2] = biological target: T1, Smc4 (S. cerevisiae condensin subunit); experiment: cryo-EM structure

Row | binding result [1] | binding result [2] | Binder
1 | binds | binds | B1
2 |  | binds | B2
